Laboratory results as given in the supplement of paper PMC9112550, “Optimization of the antimicrobial peptide Bac7 by deep mutational scanning” (BMC Biology, 2022).

These sequences were tested on Escherichia coli TOP10 (assay: shrunken log2 fold change of peptide-encoding DNA abundance (4.5 h post-induction vs induction); higher = less antimicrobial activity (less host growth inhibition)). Conditions: time post-induction: 4.5 h; library: site-saturation at positions 5, 18, 19, 20.
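Note: peptides expressed intracellularly from a pBAD plasmid library in pooled LB shake-flask culture, induced with 0.3% L-arabinose, DNA abundance read by NGS, three biological replicates, DESeq2 with apeglm shrinkage.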

Row | Sequence | shrunken log2 fold change
1 | RRIRHRPPRLPRPRPRPSRCPRP | -0.648
2 | RRIRTRPPRLPRPRPRPKVEPRP | 0.12
3 | RRIRWRPPRLPRPRPRPNYEPRP | -0.222
4 | RRIRQRPPRLPRPRPRPPRVPRP | 0.422
5 | RRIRVRPPRLPRPRPRPRLVPRP | 1.56
6 | RRIRKRPPRLPRPRPRPQTEPRP | -0.0229
7 | RRIRPRPPRLPRPRPRPIKGPRP | 0.0468
8 | RRIRHRPPRLPRPRPRPEIMPRP | -0.023
9 | RRIRFRPPRLPRPRPRPLESPRP | -0.00313
10 | RRIRLRPPRLPRPRPRPQTAPRP | 0.0246
11 | RRIRERPPRLPRPRPRPPHEPRP | 0.731
12 | RRIRQRPPRLPRPRPRPWWVPRP | -0.0321
13 | RRIRNRPPRLPRPRPRPHYDPRP | -0.775
14 | RRIRQRPPRLPRPRPRPFFDPRP | -0.0271
15 | RRIRMRPPRLPRPRPRPGENPRP | 0.00897
16 | RRIRGRPPRLPRPRPRPWFTPRP | -0.221
17 | RRIRMRPPRLPRPRPRPVPQPRP | 0.7
18 | RRIRHRPPRLPRPRPRPHVDPRP | 0.0392
19 | RRIRPRPPRLPRPRPRPPDFPRP | -0.256
20 | RRIRHRPPRLPRPRPRPSKVPRP | -0.146
21 | RRIRRRPPRLPRPRPRPMNMPRP | 0.922
22 | RRIRTRPPRLPRPRPRPKCDPRP | 0.118
23 | RRIRWRPPRLPRPRPRPAFIPRP | 0.0835
24 | RRIRPRPPRLPRPRPRPEYRPRP | 0.0278
25 | RRIRIRPPRLPRPRPRPFKNPRP | -0.188

Row | Sequence | shrunken log2 fold change
26 | RRIRGRPPRLPRPRPRPWMCPRP | -0.13
27 | RRIRTRPPRLPRPRPRPGMMPRP | -0.211
28 | RRIRRRPPRLPRPRPRPMLIPRP | -0.0813
29 | RRIRCRPPRLPRPRPRPEDTPRP | -0.146
30 | RRIRQRPPRLPRPRPRPDWGPRP | -0.0197
31 | RRIRKRPPRLPRPRPRPMIRPRP | 0.134
32 | RRIRFRPPRLPRPRPRPVFDPRP | -0.258
33 | RRIRQRPPRLPRPRPRPWRSPRP | 0.0241
34 | RRIRQRPPRLPRPRPRPQFVPRP | -0.173
35 | RRIRQRPPRLPRPRPRPVPLPRP | 0.0148
36 | RRIRMRPPRLPRPRPRPESYPRP | -0.00254
37 | RRIRFRPPRLPRPRPRPVSEPRP | 0.114
38 | RRIRIRPPRLPRPRPRPGVKPRP | -0.279
39 | RRIRFRPPRLPRPRPRPEAMPRP | -0.000462
40 | RRIRKRPPRLPRPRPRPSWAPRP | 0.186
41 | RRIRMRPPRLPRPRPRPATKPRP | 0.103
42 | RRIRQRPPRLPRPRPRPAAAPRP | 0.258
43 | RRIRYRPPRLPRPRPRPNMSPRP | -0.675
44 | RRIRYRPPRLPRPRPRPPQNPRP | 0.191
45 | RRIRQRPPRLPRPRPRPYMRPRP | -0.0086
46 | RRIRHRPPRLPRPRPRPINLPRP | -0.0477
47 | RRIRLRPPRLPRPRPRPYSQPRP | -0.0787
48 | RRIRLRPPRLPRPRPRPCVKPRP | 0.00159
49 | RRIRDRPPRLPRPRPRPWPAPRP | 0.308
50 | RRIRNRPPRLPRPRPRPLPPPRP | 0.5

Row | Sequence | shrunken log2 fold change
51 | RRIRGRPPRLPRPRPRPHRNPRP | -0.184
52 | RRIRERPPRLPRPRPRPAVIPRP | -0.12
53 | RRIRIRPPRLPRPRPRPMFSPRP | -0.433
54 | RRIRYRPPRLPRPRPRPPNQPRP | -0.44
55 | RRIRWRPPRLPRPRPRPLNHPRP | -0.176
56 | RRIRMRPPRLPRPRPRPCGEPRP | 0.967
57 | RRIRERPPRLPRPRPRPDQRPRP | -0.48
58 | RRIRCRPPRLPRPRPRPGWGPRP | 0.42
59 | RRIRGRPPRLPRPRPRPMWQPRP | 0.418
60 | RRIRSRPPRLPRPRPRPQQMPRP | -0.155
61 | RRIRYRPPRLPRPRPRPRMHPRP | -0.156
62 | RRIRKRPPRLPRPRPRPYYNPRP | -0.197
63 | RRIRARPPRLPRPRPRPPTHPRP | 0.398
64 | RRIRGRPPRLPRPRPRPARYPRP | 0.339
65 | RRIRFRPPRLPRPRPRPWGVPRP | -0.517
66 | RRIRRRPPRLPRPRPRPWASPRP | 0.289
67 | RRIRRRPPRLPRPRPRPVFVPRP | 0.292
68 | RRIRMRPPRLPRPRPRPVDIPRP | -0.0631
69 | RRIRARPPRLPRPRPRPSQPPRP | -0.0248
70 | RRIRARPPRLPRPRPRPRRPPRP | 0.494
71 | RRIRSRPPRLPRPRPRPQVPPRP | 0.299
72 | RRIRSRPPRLPRPRPRPYAAPRP | -0.0585
73 | RRIRDRPPRLPRPRPRPEPTPRP | 0.885
74 | RRIRTRPPRLPRPRPRPYSTPRP | -0.0702
75 | RRIRCRPPRLPRPRPRPQRTPRP | 0.288

Row | Sequence | shrunken log2 fold change
76 | RRIRHRPPRLPRPRPRPDMMPRP | -0.21
77 | RRIRYRPPRLPRPRPRPYVYPRP | -0.26
78 | RRIRIRPPRLPRPRPRPKYGPRP | -0.284
79 | RRIRIRPPRLPRPRPRPQFEPRP | -0.0601
80 | RRIRGRPPRLPRPRPRPNGKPRP | 0.311
81 | RRIRFRPPRLPRPRPRPASCPRP | 0.0375
82 | RRIRTRPPRLPRPRPRPMLSPRP | -0.41
83 | RRIRCRPPRLPRPRPRPQATPRP | 0.122
84 | RRIRDRPPRLPRPRPRPACLPRP | 0.723
85 | RRIRMRPPRLPRPRPRPEEQPRP | -0.00184
86 | RRIRWRPPRLPRPRPRPEKKPRP | 0.0589
87 | RRIRARPPRLPRPRPRPEGQPRP | 1.2
88 | RRIRERPPRLPRPRPRPNVWPRP | 0.133
89 | RRIRPRPPRLPRPRPRPQDFPRP | -0.0957
90 | RRIRTRPPRLPRPRPRPIQKPRP | -0.00925
91 | RRIRTRPPRLPRPRPRPHFHPRP | -0.589
92 | RRIRCRPPRLPRPRPRPWLKPRP | -0.133
93 | RRIRVRPPRLPRPRPRPDFEPRP | 0.0704
94 | RRIRHRPPRLPRPRPRPLGMPRP | -0.227
95 | RRIRMRPPRLPRPRPRPIGTPRP | 0.403
96 | RRIRGRPPRLPRPRPRPMDHPRP | -0.137
97 | RRIRFRPPRLPRPRPRPIVTPRP | -0.075
98 | RRIRARPPRLPRPRPRPPKVPRP | 0.123
99 | RRIRNRPPRLPRPRPRPKHHPRP | -0.487
100 | RRIRTRPPRLPRPRPRPIPLPRP | -0.683

Row | Sequence | shrunken log2 fold change
101 | RRIRYRPPRLPRPRPRPNEYPRP | -0.519
102 | RRIRWRPPRLPRPRPRPYITPRP | -0.13
103 | RRIRMRPPRLPRPRPRPVPGPRP | 0.882
104 | RRIRNRPPRLPRPRPRPTAQPRP | 0.136
105 | RRIRHRPPRLPRPRPRPNYYPRP | -0.639
106 | RRIRSRPPRLPRPRPRPQLNPRP | -0.248
107 | RRIRSRPPRLPRPRPRPIPFPRP | -0.518
108 | RRIRQRPPRLPRPRPRPEKLPRP | -0.12
109 | RRIRTRPPRLPRPRPRPEAEPRP | 0.0438
110 | RRIRERPPRLPRPRPRPGDRPRP | 0.172
111 | RRIRKRPPRLPRPRPRPRSQPRP | 0.051
112 | RRIRNRPPRLPRPRPRPFDHPRP | -0.0345
113 | RRIRKRPPRLPRPRPRPMNYPRP | 0.474
114 | RRIRLRPPRLPRPRPRPQCQPRP | -0.399
115 | RRIRNRPPRLPRPRPRPLEIPRP | 0.000705
116 | RRIRVRPPRLPRPRPRPNPWPRP | -0.0698
117 | RRIRPRPPRLPRPRPRPHERPRP | 0.198
118 | RRIRARPPRLPRPRPRPAWSPRP | 0.329
119 | RRIRYRPPRLPRPRPRPHQSPRP | 0.0552
120 | RRIRGRPPRLPRPRPRPPNFPRP | 0.0696
121 | RRIRIRPPRLPRPRPRPMTHPRP | -0.996
122 | RRIRYRPPRLPRPRPRPTRRPRP | 0.358
123 | RRIRVRPPRLPRPRPRPGYTPRP | -0.208
124 | RRIRNRPPRLPRPRPRPEALPRP | 0.102
125 | RRIRSRPPRLPRPRPRPFWTPRP | 0.131

Row | Sequence | shrunken log2 fold change
126 | RRIRDRPPRLPRPRPRPWFLPRP | 0.109
127 | RRIRQRPPRLPRPRPRPVYMPRP | -0.269
128 | RRIRYRPPRLPRPRPRPTWTPRP | 0.0315
129 | RRIRLRPPRLPRPRPRPINSPRP | 0.0605
130 | RRIRKRPPRLPRPRPRPGVWPRP | 0.786
131 | RRIRERPPRLPRPRPRPHDLPRP | -0.343
132 | RRIRLRPPRLPRPRPRPNWQPRP | 0.351
133 | RRIRTRPPRLPRPRPRPNMQPRP | -0.223
134 | RRIRQRPPRLPRPRPRPDAMPRP | 0.0556
135 | RRIRNRPPRLPRPRPRPYAEPRP | -0.525
136 | RRIRERPPRLPRPRPRPTKDPRP | -0.239
137 | RRIRSRPPRLPRPRPRPQHHPRP | -0.466
138 | RRIRIRPPRLPRPRPRPHFIPRP | -0.564
139 | RRIRERPPRLPRPRPRPQPKPRP | -0.077
140 | RRIRMRPPRLPRPRPRPKFAPRP | 0.51
141 | RRIRCRPPRLPRPRPRPYSCPRP | -0.833
142 | RRIRERPPRLPRPRPRPDMRPRP | -3.48e-05
143 | RRIRMRPPRLPRPRPRPRNNPRP | 0.063
144 | RRIRDRPPRLPRPRPRPFCVPRP | 0.483
145 | RRIRFRPPRLPRPRPRPDREPRP | -0.006
146 | RRIRVRPPRLPRPRPRPLWPPRP | 0.176
147 | RRIRARPPRLPRPRPRPVHPPRP | 0.217
148 | RRIRRRPPRLPRPRPRPFRFPRP | 0.506
149 | RRIRCRPPRLPRPRPRPWVPPRP | -0.423
150 | RRIRPRPPRLPRPRPRPCPHPRP | -0.81
